Values of other authors, collected in paper PMC4549621.

Target: amyloid-beta monomer Abeta (Homo sapiens) (UniProt P05067)

Kd: 600 pM
Substance: gantenerumab
